Test results as given in publication PMC6650482, “Tyrosine 51 residue of the syndecan-2 extracellular domain is involved in the interaction with and activation of pro-matrix metalloproteinase-7” (Scientific Reports, 2019).

How the values were obtained:
MMP-7 in HT-29 cells [1] = conditions: cited from earlier work
Description: Since syndecan-2 is known to mediate the activation of pro-MMP-7, we investigated how interrupting their interaction could affect syndecan-2-mediated MMP-7 activation. Firstly, we investigated whether the expression of syndecan-2 affects that of MMP-7.

MMP-7 in HT-29 cells [2] = assay: MMP-7 expression on IL-1α treatment; assay type: cell-based, human; conditions: 1 ng/ml IL-1α, syndecan-2- and Y51A-expressing HT-29 cells
Experimental: Figure 6 Tyrosine 51 of the syndecan-2 extracellular domain is involved in regulating pro-MMP-7 activation. (A) HT-29 cells were transiently transfected with 1 µg of vectors encoding SDC2 or the interaction-defective syndecan-2 mutant, Y51A, and the mRNA expression levels of SDC2 and MMP-7 were evaluated by RT-PCR (top). Conditioned media (CM) were collected and proteolytic activity was measured using quenched fluorescence peptide cleavage assay. The relative activity was normalized versus the fluorescence of a vector control (bottom). Data are shown as mean ± S.D. (n = 3), **p < 0.01 versus VEC or SDC2. (B) HT-29 cells were stably transfected with vectors encoding SDC2 or Y51A. The expression levels of the target mRNAs were analyzed by RT-PCR and quantitative real-time PCR (q-PCR) of three independent experiments was performed and normalized to GAPDH expression. Data are shown as mean ± S.D. (n = 3), *p < 0.05, **p < 0.01 versus VEC or SDC2 (left). […] CM were collected and proteolytic activity was measured using quenched fluorescence peptide cleavage assay (right bottom). […] The mRNA expression levels of SDC2 and MMP-7 were evaluated with RT-PCR (left top). CM were collected from the indicated cells and immunoblotted with an anti-MMP-7 antibody (left bottom) or subjected to quenched fluorescence peptide cleavage activity assay (right). […]

B1: IL-1α: IL-1α was purchased from R&D Systems (protein, UniProt P01583 113-271, looked up)
Interleukin-1 alpha: SAPFSFLSNVKYNFMRIIKYEFILNDALNQSIIRANDQYLTAAALHNLDEAVKFDMGAYKSSKDDAKITVILRISKTQLYVTAQDEDQPVLLKEMPEIPKTITGSETNLLFFWETHGTKNYFTSVAHPNLFIATKQDYWVCLAGGPPSITDFQILENQA
**Q.** For B1, which “MMP-7 expression in colon cancer cells” value (MMP-7 in HT-29 cells [1]) is on record?
**A.** The value was “known to induce MMP-7 expression”.

**Q.** And the MMP-7 expression (MMP-7 in HT-29 cells [2])?
**A.** Its MMP-7 expression is “upregulation of MMP-7”.
